Measured values: patent publication EP4365192A1

Experiments:
[1] = biological target: Recombinant Human FGFR1 alpha (IIIc) Fc Chimera Protein (R&D systems, 658-FR-050) (human) (UniProt P11362); assay: ELISA: FGFR1 alpha (IIIc)-Fc coated at 0.5 ug/ml; FGF sample at 80 ng/mL after 24 h at 37°C; detected with biotinylated anti-FGF antibody BAM233 and streptavidin-HRP; blank subtracted
[2] = biological target: Recombinant Human FGFR1 alpha (IIIc) Fc Chimera Protein (R&D systems, 658-FR-050) (human) (UniProt P11362); assay: ELISA: FGFR1 alpha (IIIc)-Fc coated at 0.5 ug/ml; FGF sample at 80 ng/mL after 6 h at 37°C; detected with biotinylated anti-FGF antibody BAM233 and streptavidin-HRP; blank subtracted
[3] = biological target: Recombinant Human FGFR1 alpha (IIIc) Fc Chimera Protein (R&D systems, 658-FR-050) (human) (UniProt P11362); assay: ELISA: FGFR1 alpha (IIIc)-Fc coated at 0.5 ug/ml; FGF sample at 80 ng/mL after 48 h at 37°C; detected with biotinylated anti-FGF antibody BAM233 and streptavidin-HRP; blank subtracted
[4] = biological target: Recombinant Human FGFR1 alpha (IIIc) Fc Chimera Protein (R&D systems, 658-FR-050) (human) (UniProt P11362); assay: ELISA: FGFR1 alpha (IIIc)-Fc coated at 0.5 ug/ml; FGF sample at 80 ng/mL after 0 h at 37°C; detected with biotinylated anti-FGF antibody BAM233 and streptavidin-HRP; blank subtracted

Sequence of Recombinant Human FGFR1 alpha (IIIc) Fc Chimera Protein (R&D systems, 658-FR-050) (human) (P11362 22-376, change not shown): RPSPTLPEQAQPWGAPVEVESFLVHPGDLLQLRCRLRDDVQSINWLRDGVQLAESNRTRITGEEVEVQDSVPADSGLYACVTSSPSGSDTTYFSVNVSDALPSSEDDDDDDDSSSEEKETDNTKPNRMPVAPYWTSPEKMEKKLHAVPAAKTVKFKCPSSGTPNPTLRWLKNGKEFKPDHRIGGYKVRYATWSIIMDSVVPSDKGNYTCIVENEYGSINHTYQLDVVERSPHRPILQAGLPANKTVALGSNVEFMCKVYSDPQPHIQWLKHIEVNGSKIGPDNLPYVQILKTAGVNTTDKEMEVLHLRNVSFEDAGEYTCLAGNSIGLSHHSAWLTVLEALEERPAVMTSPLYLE

## FGF301 (FGF2_native_Pig) (from UniProt P03969 10-155) (ligand)
[1]
  Absorbance (450 nm) (absorbance (450 nm)): 1.5
[2]
  Absorbance (450 nm) (absorbance (450 nm)): 2.1
[3]
  Absorbance (450 nm) (absorbance (450 nm)): 0.8
[4]
  Absorbance (450 nm) (absorbance (450 nm)): 2.3
